Experimental data taken from patent US20240124585A1 (SUTRO BIOPHARMA, published 2024).
Numbering of substitutions follows the chain as printed. Each block holds one binder with its values, some of them ahead of it.

How the values were obtained:
EpCAM on NCI-H1975 cells [1] = biological target: T1, EpCAM on NCI-H1975 cells (UniProt P16422 24-314, limits assumed); experiment: cell-based or functional assay
T1 sequence (looked up): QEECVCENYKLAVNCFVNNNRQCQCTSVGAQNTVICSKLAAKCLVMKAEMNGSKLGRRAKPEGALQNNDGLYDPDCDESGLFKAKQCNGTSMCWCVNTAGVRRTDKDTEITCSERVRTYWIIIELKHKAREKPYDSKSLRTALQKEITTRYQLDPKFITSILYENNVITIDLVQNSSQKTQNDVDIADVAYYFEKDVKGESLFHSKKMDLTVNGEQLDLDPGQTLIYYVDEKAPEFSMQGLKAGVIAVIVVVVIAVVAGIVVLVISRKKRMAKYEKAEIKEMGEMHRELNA

EpCAM on NCI-H1975 cells [2] = biological target: T1, EpCAM on NCI-H1975 cells; experiment: cell-based or functional assay; remark: listed apart in the source
[3] = biological target: T2, human CD3 on T-cell lines (CD3-expressing Jurkat cells; HUT78 cells) (human, UniProt P07766 23-207); experiment: flow cytometry, Jurkat cells
T2 construct: On cells it stands in the CD3/TCR complex
T2 sequence (P07766 23-207 limits assumed): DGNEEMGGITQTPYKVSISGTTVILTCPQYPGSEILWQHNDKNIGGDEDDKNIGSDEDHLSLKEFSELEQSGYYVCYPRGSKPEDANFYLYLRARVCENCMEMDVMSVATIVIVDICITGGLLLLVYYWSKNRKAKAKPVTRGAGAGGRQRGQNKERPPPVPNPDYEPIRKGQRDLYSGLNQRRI

[4] = biological target: T3, cynomolgus CD3 delta-epsilon heterodimer (Acro Cat #CDD-C52W4) (cynomolgus monkey, UniProt Q95LI8 22-105); experiment: single-point ELISA; signal on cyCD3DE over Fc
T3 construct: Bought; also called cyCD3DE
T3 sequence (Q95LI8 22-105, stated change not applied, one chain of several): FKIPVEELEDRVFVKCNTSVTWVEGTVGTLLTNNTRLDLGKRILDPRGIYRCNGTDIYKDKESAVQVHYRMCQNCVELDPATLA
Protocol: (§1) Following small-scale cell-free protein synthesis (60 μL reactions), each reaction was diluted 1:50 and tested for binding to CD3 protein by ELISA. Briefly, human CD3 delta-epsilon-Fc heterodimer (CD3DE-Fc, Acro Biosystems, Cat #CDD-H52WO), cynomolgus CD3 delta-epsilon heterodimer (CD3DE, Acro Cat #CDD-C52W4) and human IgG1 Fc (Acro Biosystems, Cat #FCC-H5214) were coated to 384-well Maxisorp plates in 0.2M sodium bicarbonate-carbonate pH 9.4 and blocked with […] in PBST (phosphate buffer saline, […], diluted from Teknova Cat #P2192). Antibodies expressed in CF were diluted 1:50 in 0.20% BSA in PBST and were incubated on the […] plates, washed, and detected with HRP-conjugated anti-human Fab antibodies (Jackson ImmunoResearch, West Grove, PA) and Pierce Pico Supersignal ELISA substrate (ThermoFisher Scientific).

[5] = biological target: T4, human CD3 epsilon (Acro Cat #CDE-H5223) (human, UniProt P07766 23-126); experiment: SPR (Biacore), scFvFc captured, rhCD3E analyte
T4 construct: Bought recombinant protein; also called rhCD3E
T4 sequence (P07766 23-126 limits assumed): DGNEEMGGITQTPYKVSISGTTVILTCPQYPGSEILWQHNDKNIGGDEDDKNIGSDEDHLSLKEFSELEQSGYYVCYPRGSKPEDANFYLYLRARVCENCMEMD
Protocol: Anti-Fab or anti-Fc polyclonal antibodies were immobilized onto a CM5 chip (GE Life Sciences) using amine coupling chemistry (from Amine Coupling Kit, GE Life Sciences). The immobilization steps were carried out at a flow rate of 25 μl/min in 1×HBS-EP+ buffer (GE Life Sciences; 10× Stock diluted before use). The sensor surfaces were activated for 7 min with a mixture of NHS (0.05 M) and EDC (0.2 M). The Anti-Fab or Anti-Fc antibodies were injected over all 4 flow cells at a concentration of 25 μg/mL in 10 mM sodium acetate, pH 4.5, for 7 min. Ethanolamine (1 M, pH 8.5) was injected for 7 min to block any remaining activated groups.
Off-rate and kinetic binding experiments were performed at 25° C. using 1×HBS-EP+ buffer. Test and control antibodies were injected over the anti-Fab or anti-Fc surface at concentrations of 5-10 μg/mL for 12 seconds at a flow rate of 10 μL/min on flow cells 2, 3 and 4, followed by a buffer wash for 30 seconds at the same flow rate. […] After capturing ligand (antibody) on the anti-Fc or anti-Fab surface, the analyte (human CD3 epsilon, Acro Cat #CDE-H5223) was bound for 180 seconds, followed by a 600 second dissociation phase at a flow rate of 50 μL/min. Between each ligand capture and analyte binding cycle, regeneration was carried out using two injections of 10 mM Glycine pH 2.0 for 30 seconds at 30 μL/min, followed by a 30 second buffer wash step.
The data was fit with the Biacore T200 Evaluation software, using a 1-1 Langmuir binding model. KD (affinity, nM) was determined as a ratio of the kinetic rate constants calculated from the fits of the association and dissociation phases.

[6] = biological target: T5, human CD3 delta-epsilon-Fc heterodimer (Acro Biosystems, Cat #CDD-H52WO) (human, UniProt P04234 22-105); experiment: single-point ELISA; signal on huCD3DE-Fc over Fc
T5 construct: Bought; also called CD3DE-Fc; huCD3DE-Fc; not shown: Fc
T5 sequence (chain, as listed by the source mutant, chain 1 of 2): as the sequence (P07766 23-126 limits assumed) above
T5 sequence (P04234 22-105, stated change not applied, chain 2 of 2): as the sequence (Q95LI8 22-105, stated change not applied, one chain of several) above, with V5I, K15N, V20I, T32S, N33D, N34I, A64T, N74S, L83V counted along it
Protocol: as §1

B1: aEpCAM × hOKT3 (MT110/AMG110) (bispecific antibody)
chain: MELVMTQSPSSLTVTAGEKVTMSCKSSQSLLNSGNQKNYLTWYQQKPGQPPKLLIYWASTRESGVPDRFTGSGSGTDFTLTISSVQAEDLAVYYCQNDYSYPLTFGAGTKLEIKGGGGSGGGGSGGGGSEVQLLEQSGAELVRPGTSVKISCKASGYAFTNYWLGWVKQRPGHGLEWIGDIFPGSGNIHYNEKFKGKATLTADKSSSTAYMQLSSLTFEDSAVYFCARLRNWDEPMDYWGQGTTVTVSSGGGGSDVQLVQSGAEVKKPGASVKVSCKASGYTFTRYTMHWVRQAPGQGLEWIGYINPSRGYTNYADSVKGRFTITTDKSTSTAYMELSSLRSEDTATYYCARYYDDHYCLDYWGQGTTVTVSSGEGTSTGSGGSGGSGGADDIVLTQSPATLSLSPGERATLSCRASQSVSYMNWYQQKPGKAPKRWIYDTSKVASGVPARFSGSGSGTDYSLTINSLEAEDAATYYCQQWSSNPLTFGGGTKVEIK
Cell killing Donor #1 EC50 (pM) (EpCAM on NCI-H1975 cells [1]): 8.2 pM
Cell killing Donor #2 EC50 (pM) (EpCAM on NCI-H1975 cells [1]): 4.1 pM
T-cell mediated H1975 killing, EC50 (pM) Donor 1 (EpCAM on NCI-H1975 cells [2]): 8 pM
T-cell mediated H1975 killing, EC50 (pM) Donor 2 (EpCAM on NCI-H1975 cells [2]): 4 pM

Bmax [3]: 4540
Kd [3]: 0.16 nM
cyCD3DE/Fc, ELISA S/N [4]: 62.1
Kd [5]: 1.23 nM
koff [5]: 0.000235 s⁻¹
huCD3DE-Fc/Fc, ELISA S/N [6]: 55.1
B2: SRP2037:A03 (scFv, not shown: small tags and cut ends)
scFv: EVQLVESGGGLVKPGGSLRLSCAASGFTFSKYAMNWVRQAPGKGLEWVARIRSKYNNYATYYADSVKDRFTISRDDSKNTAYLQINSLKTEDTAVYYCVRHGNFGNSYTSYWAYWGQGTPVTVSSGGGGSGGDGSGGGGSQTVVTQEPSLTVSPGGTVTLTCGSSTGAVTSGYYPNWLQQKPGQAPRGLIGGTKFLAPGTPARFSGSLLGGKAALTLSGVQPEDEAEYYCALWYSNRWVFGGGTQLTVT
notes: tested as scFvFc

Bmax [3]: 5900
Kd [3]: 0.12 nM
cyCD3DE/Fc, ELISA S/N [4]: 28.9
Kd [5]: 0.712 nM
koff [5]: 0.000157 s⁻¹
huCD3DE-Fc/Fc, ELISA S/N [6]: 21.2
B3: SRP2037:A05 (scFv, not shown: small tags and cut ends)
scFv: B2 scFv with S30N, K78R, I85M, T90A, T109I
notes: tested as scFvFc

Bmax [3]: 4800
Kd [3]: 1.7 nM
cyCD3DE/Fc, ELISA S/N [4]: 19.3
Kd [5]: 0.367 nM
koff [5]: 3.27e-06 s⁻¹
huCD3DE-Fc/Fc, ELISA S/N [6]: 14.7
B4: SRP2037:A04 (scFv, not shown: small tags and cut ends)
scFv: B2 scFv with S30N, N79S, I85M, V99A, T109I, Y174H, Y234C
notes: tested as scFvFc
